Where a chain is given by its changes, count along the chain named. One block for each molecule: values may come before it. Bridges are numbered along the chain shown (N, C = ends). Where no end group is shown, it is not given here. [ ]: non-standard residue; d: D form.
How the values were obtained:
[1] = target: T1, VEGF-A binding to VEGFR1 receptor (Homo sapiens, UniProt P15692); assay: VEGF-A:VEGFR1 inhibition in Octet assay; format: biochemical; conditions: for inhibition at 0.08 µM: read-out: % inhibition at 80 nM compound, D-peptidic compounds
T1 sequence (P15692 214-315 limits assumed): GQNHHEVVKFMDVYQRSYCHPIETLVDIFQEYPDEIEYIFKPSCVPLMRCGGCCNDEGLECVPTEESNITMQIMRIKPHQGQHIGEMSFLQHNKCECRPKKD

[2] = test system: VEGF-A signaling through VEGFR2; assay: VEGFR2 luciferase reporter cell signaling assay (KDR/NFAT-RE HEK293); format: cell-based; conditions: 150 pM VEGF-A; read-out: IC50, inhibition of VEGFR2 signaling (luciferase)
HUVEC cell proliferation = conditions: read-out: IC50 for inhibition of cell proliferation in response to VEGF signaling; HUVEC, recombinant VEGF-A
VEGF-A = target: T2, VEGF-A (Homo sapiens, UniProt P15692); conditions: 5 μM 978336 to saturation, then 5 μM 978336 plus 1 μM 11055
T2 sequence (P15692 214-315): T1 sequence (P15692 214-315 limits assumed)

L-VEGF-A [3] = target: T3, L-VEGF-A (Homo sapiens, UniProt P15692); assay: kd (s^-1)
T3 construct: Biotinylated VEGF-A(8-109) was immobilized on a biotin CAPture chip

L-VEGF-A [4] = target: T3, L-VEGF-A; assay: ka (10^6/M^-1s^-1)
VEGF-A (form not stated) [5] = target: VEGF-A (form not stated) (UniProt P15692); assay: Octet; inhibition of VEGF-A (10 nM) binding to VEGFR1
[6] = target: D-VEGF-A (8-109), synthetic mirror-image protein (Homo sapiens (Human)) (UniProt P15692); assay: competitive phage ELISA; L-peptidic compound on D-VEGF-A
[7] = target: L-VEGF-A (8-109) (Homo sapiens (Human)) (UniProt P15692); assay: SPR
VEGF-A (form not stated) [8] = target: VEGF-A (form not stated) (UniProt P15692); assay: equilibrium VEGF-A/VEGFR1 blocking ELISA, 150 pM VEGF-A
[9] = target: T4, Biotinylated human VEGF-A121 (human, UniProt P15692-9 27-147, biotinylated); assay: non-equilibrium VEGF-A121 blocking ELISA
T4 construct: Bought; also called VEGF-A121-biot
T4 sequence (looked up): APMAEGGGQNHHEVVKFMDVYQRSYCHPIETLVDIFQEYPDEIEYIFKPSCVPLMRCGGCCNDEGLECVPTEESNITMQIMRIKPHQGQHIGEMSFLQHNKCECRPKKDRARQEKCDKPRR

[10] = target: L-VEGF-A (8-109) (Homo sapiens (Human)) (UniProt P15692); assay: SPR, biotinylated VEGF-A(8-109) on a biotin CAPture chip, D-protein in solution, global single site kinetic fit
VEGF-A (form not stated) [11] = target: VEGF-A (form not stated) (UniProt P15692); assay: VEGF-A blocking ELISA on coated VEGFR1-Fc
[12] = target: L-VEGF-A (8-109) (Homo sapiens (Human)) (UniProt P15692); assay: SPR per Examples 7, 8, 11 (method not named in Table 4)
[13] = target: L-VEGF-A (8-109) (Homo sapiens (Human)) (UniProt P15692); assay: SPR on natural L-VEGF-A
[14] = target: T4, Biotinylated human VEGF-A121; assay: equilibrium VEGF-A121/VEGFR1 blocking ELISA
VEGF-A (form not stated) [15] = target: VEGF-A (form not stated) (UniProt P15692); assay: cell-based or functional assay
[16] = target: D-VEGF-A (8-109), synthetic mirror-image protein (Homo sapiens (Human)) (UniProt P15692); assay: SPR; L-peptidic compound on D-VEGF-A
VEGF-A (form not stated) [17] = target: T5, VEGF-A (form not stated) (UniProt P15692-9 27-147, limits assumed); assay: equilibrium VEGF-A/VEGFR1 blocking ELISA, 150 pM VEGF-A; soluble VEGFR1-Fc against coated VEGFR1-Fc
T5 construct: also called biotinylated-VEGF-A; recombinant VEGF-A
T5 sequence (looked up): T4 sequence (looked up)

[18] = target: T4, Biotinylated human VEGF-A121; assay: equilibrium VEGF-A121/VEGFR1 blocking ELISA; soluble VEGFR1-Fc against coated VEGFR1-Fc
VEGF-A (form not stated) [19] = target: VEGF-A (form not stated) (UniProt P15692); assay: Octet; inhibition of VEGF-A binding to VEGFR1

Molecule: [dP][dA][dL][dL][dK][dN][dA][dK][dE][dD][dA][dI][dA][dE][dL][dK][dK][dA]G[dI][dT][dE][dP][dH][dV][dI][dS][dF][dI][dN][dH][dA][dP][dY][dV][dS][dH][dV][dN]G[dL][dK][dN][dA][dI][dL]G[dR][dT][dV][dP] [1.1.1.2 (pa, pis), pallknakedaiaelkkaGitephvisfinhapyvshvnGlknailGrtvp]
inhibition at 0.08 µM [1]: 18%

Molecule: [dT][dI][dD][dQ][dW][dL][dL][dK][dN][dA][dK][dE][dD][dA][dI][dA][dE][dL][dK][dK][dA]G[dI][dT][dE][dP][dH][dV][dI][dS][dF][dI][dN][dH][dA][dP][dY][dV][dS][dH][dV][dN]G[dL][dN][dA][dI][dL]G[dR][dT][dV][dP] [1.1.1(c21a) (-kaha, Grtvp), tidqwllknakedaiaelkkaGitephvisfinhapyvshvnGlnailGrtvp]
inhibition at 0.08 µM [1]: 27%

Molecule: tidqwllknakedaiaelkkaGitephvisfinhapyvshvnGlknailkaha [Compound 11055]
binding of 978336 and 11055 together to VEGF-A (VEGF-A): additive binding

B1: 1.1 (D-peptidic) (designed binder)
chain: [dT][dI][dD][dQ][dW][dL][dL][dK][dN][dA][dK][dE][dD][dA][dI][dA][dE][dL][dK][dK][dA]G[dI][dT][dE][dD][dH][dV][dF][dN][dF][dI][dN][dH][dA][dP][dY][dV][dS][dH][dV][dN]G[dL][dK][dN][dA][dI][dL][dK][dA][dH][dA]
IC50 (VEGF-A (form not stated) [5]): 105 nM

B2: 1.1 (-kaha, GehGsp) (L-peptidic) (designed binder)
chain: TIDQWLLKNAKEDAIAELKKAGITEDHVFNFINHAPYVSHVNGLKNAILGEHGSP
IC50 [6]: 14 nM

Molecule: LLKNAKEDAIAELKKAGITEDHVFNFINHAPYVSHVNGLKNAILKAHA (designed binder) [1.1 (-tidqw) (L-peptidic)]
Kd [16]: 450 nM

B5: 1.1 (L-peptidic) (designed binder)
chain: TIDQWLLKNAKEDAIAELKKAGITEDHVFNFINHAPYVSHVNGLKNAILKAHA
IC50 [6]: 100 to 105 nM
Kd [16]: 140 nM

B6: 1.1 (-kaha, edyl) (L-peptidic) (designed binder)
chain: B5 chain with K50E, A51D, H52Y, A53L
IC50 [6]: 5 nM

B7: 1.1 (-kaha, adfl) (L-peptidic) (designed binder)
chain: B5 chain with K50A, A51D, H52F, A53L
IC50 [6]: 12 nM

More lines, main results first:

IC50 [2]: 0.53 nM
Molecule: bevacizumab [reference compound]
IC50 (HUVEC cell proliferation): 0.7 nM

% inhibition at 80 nM compound ([1]; D-peptidic compounds): 68%
Molecule: tidqwllknakedaiaelkkaGitephvisfinhapyvshvnGlknailkahac(acetyl)

kd (L-VEGF-A [3]): 0.0052 s⁻¹
ka (10^6/M^-1s^-1) (L-VEGF-A [4]): 2.14 10^6/M^-1s^-1
Molecule: yhiqwvcknakedaiaelkkaGitephvisfinhapncshvnGlknailkaha ([dY][dH][dI][dQ][dW][dV][dC][dK][dN][dA][dK][dE][dD][dA][dI][dA][dE][dL][dK][dK][dA]G[dI][dT][dE][dP][dH][dV][dI][dS][dF][dI][dN][dH][dA][dP][dN][dC][dS][dH][dV][dN]G[dL][dK][dN][dA][dI][dL][dK][dA][dH][dA]-NH2; disulfide 7-38; not fully specified; printed as yhiqwvcknakedaiaelkkaGitephvisfinhapncshvnGlknailkaha) [Compound 979110]

fold affinity improvement over RFX-11055 [7]: 19 fold
fold improvement of VEGF binding over 11055 [7]: 10 fold
IC50 (VEGF-A (form not stated) [8]): 7 nM
fold improvement of IC50 over RFX-11055 [9]: 15 fold
koff [10]: 0.0052 s⁻¹
kon [10]: 2.14e+06 M⁻¹ s⁻¹
fold better IC50 than 11055 (VEGF-A (form not stated) [11]): 14.8 fold
Kd [12]: 2.3 nM
Kd [13]: 3.6 nM
IC50 [14]: 7.6 nM
HUVEC cell proliferation, apparent IC50 (VEGF-A (form not stated) [15]): 131 nM
HUVEC cell proliferation, potency against 11055 (VEGF-A (form not stated) [15]): 4 fold
fold decrease in HUVEC cell proliferation, potency against bevacizumab (VEGF-A (form not stated) [15]): 185 fold
B3: RFX-979110 (designed binder)
chain: [dY][dH][dI][dQ][dW][dV][dC][dK][dN][dA][dK][dE][dD][dA][dI][dA][dE][dL][dK][dK][dA]G[dI][dT][dE][dP][dH][dV][dI][dS][dF][dI][dN][dH][dA][dP][dN][dC][dS][dH][dV][dN]G[dL][dK][dN][dA][dI][dL][dK][dA][dH][dA]-NH2
modifications: disulfide 7-38; not fully specified

IC50 (VEGF-A (form not stated) [17]): 0.22 nM
IC50 [18]: 0.23 nM
B4: VEGFR1-Fc (Fc fusion, UniProt P17948 27-756, looked up)
chain: SKLKDPELSLKGTQHIMQAGQTLHLQCRGEAAHKWSLPEMVSKESERLSITKSACGRNGKQFCSTLTLNTAQANHTGFYSCKYLAVPTSKKKETESAIYIFISDTGRPFVEMYSEIPEIIHMTEGRELVIPCRVTSPNITVTLKKFPLDTLIPDGKRIIWDSRKGFIISNATYKEIGLLTCEATVNGHLYKTNYLTHRQTNTIIDVQISTPRPVKLLRGHTLVLNCTATTPLNTRVQMTWSYPDEKNKRASVRRRIDQSNSHANIFYSVLTIDKMQNKDKGLYTCRVRSGPSFKSVNTSVHIYDKAFITVKHRKQQVLETVAGKRSYRLSMKVKAFPSPEVVWLKDGLPATEKSARYLTRGYSLIIKDVTEEDAGNYTILLSIKQSNVFKNLTATLIVNVKPQIYEKAVSSFPDPALYPLGSRQILTCTAYGIPQPTIKWFWHPCNHNHSEARCDFCSNNEESFILDADSNMGNRIESITQRMAIIEGKNKMASTLVVADSRISGIYICIASNKVGTVGRNISFYITDVPNGFHVNLEKMPTEGEDLKLSCTVNKFLYRDVTWILLRTVNNRTMHYSISKQKMAITKEHSITLNLTIMNVSLQDSGTYACRARNVYTGEEILQKKEITIRDQEAPYLLRNLSDHTVAISSSTTLDCHANGVPEPQITWFKNNHKIQQEPGIILGPGSSTLFIERVTEEDEGVYHCKATNQKGSVESSAYLTVQGTSDKSN
notes: Bought; also called VEGFR1-Fc fusion; soluble decoy receptor VEGFR1-Fc; not shown: Fc part

IC50 [6]: 0.86 to 1.1 nM
Molecule: LLKNAKEDAIAELKKAGITEPHVISFINHAPYVSHVNGLKNAILEDWYL (designed binder) [1.1.1(c21a) (-tidqw, -kaha, edwyl) (L-peptidic)]

% inhibition at 80 nM compound (VEGF-A (form not stated) [19]): 18%
B8: 1.1.1.2 (pa, pis) (D-peptidic) (designed binder)
chain: [dP][dA][dL][dL][dK][dN][dA][dK][dE][dD][dA][dI][dA][dE][dL][dK][dK][dA]G[dI][dT][dE][dP][dH][dV][dI][dS][dF][dI][dN][dH][dA][dP][dY][dV][dS][dH][dV][dN]G[dL][dK][dN][dA][dI][dL]G[dR][dT][dV][dP]
